US20240400689A1 (ANTENGENE BIOLOGICS, published 2024)
Numbering of substitutions follows the chain as printed.

T1: human CD276 protein (human, UniProt Q5ZPR3 29-534)
T1 construct: whole, on cells; for SKOV3 and the other cancer lines the protein is the cells' own; also called B7-H3; B7H3
T1 sequence (looked up): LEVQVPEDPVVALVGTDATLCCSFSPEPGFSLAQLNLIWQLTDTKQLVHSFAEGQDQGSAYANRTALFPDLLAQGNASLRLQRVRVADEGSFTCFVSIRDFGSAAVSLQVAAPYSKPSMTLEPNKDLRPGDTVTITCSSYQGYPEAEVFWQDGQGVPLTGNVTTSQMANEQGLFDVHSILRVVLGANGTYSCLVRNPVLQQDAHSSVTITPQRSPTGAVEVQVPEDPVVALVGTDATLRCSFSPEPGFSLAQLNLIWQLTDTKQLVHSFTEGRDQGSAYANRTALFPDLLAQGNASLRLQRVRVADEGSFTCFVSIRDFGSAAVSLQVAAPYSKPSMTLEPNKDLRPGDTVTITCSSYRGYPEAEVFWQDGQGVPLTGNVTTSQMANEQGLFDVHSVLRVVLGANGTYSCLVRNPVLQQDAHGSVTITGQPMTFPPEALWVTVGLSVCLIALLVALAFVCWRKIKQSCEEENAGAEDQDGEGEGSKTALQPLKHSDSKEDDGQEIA

T2: mouse CD276 protein (mouse, UniProt Q8VE98 29-316)
T2 construct: whole, on cells; also called mCD276; CHO-S-mCD276
T2 sequence (looked up): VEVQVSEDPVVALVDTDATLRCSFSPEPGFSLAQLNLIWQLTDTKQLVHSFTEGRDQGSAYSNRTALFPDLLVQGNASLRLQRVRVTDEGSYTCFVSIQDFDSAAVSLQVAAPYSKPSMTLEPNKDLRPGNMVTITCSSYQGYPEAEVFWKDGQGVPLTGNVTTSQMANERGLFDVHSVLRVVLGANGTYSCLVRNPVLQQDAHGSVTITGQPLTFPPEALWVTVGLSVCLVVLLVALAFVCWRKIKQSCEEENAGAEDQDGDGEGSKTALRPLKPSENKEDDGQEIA

B1: 28-G2-E6-B10 (antibody, V domains shown)
VH: QVQLQQPGAELVKPGASVKLSCKASGYTFTSYWMHWVKQRPGQGLEWIGMIHPNSDTTDYNEKFKTKATLTVDKSSSTAYMQLSSLTSEDSAVFYCARGGLGPHYFVYWGQGTTLTVSS
VL: QAVVTQESALTTSPGGTVILTCRSSTGAVTTSNYASWVQEKPDHLFTGLIGGTSNRAPGVPVRFSGSLIGDKAALTITGAQTEDDAMYFCALWYSPHYVFGGGTKVTVL
notes: mouse monoclonal antibody (hybridoma)
B2: 18-F9-D8-G7 (antibody, V domains shown)
VH: EVQLQQSGPELVRPGVSVKISCKGSGYTFTDYAMHWVKQSHAQSLEWIGIINTYSGDTNYNQKFKGKATMTVDKSSSTAYMGLARLTSEDSAIFYCARGGGNYPYWYFDVWGAGTTVTVSS
VL: ENVLTQSPAIMSASPGEKVTMTCRASSSVSSSYLHWYQQKSGDSPKLWIYSTSNLASGVPARFSGSGSGTSYSLTISSVEAEDAATYYCQQFSVYPLTFGAGTKLEIK
notes: as for B1
B3: 13-A8-C4-G1 (antibody, V domains shown)
VH: QVQLQQPGAELVKPGASMKLSCKASGYIFTSNWMHWVKQRPGQGLEWIGMIHPNSGTTSYNEKFKNKAKLTVDKSSSTAYVQLSSLTSEDSAVYYCAGPTTTRRFYPMDYWGQGTSVTVSS
VL: QAVVTQESALTTSPGETVTLTCRSSTGAVTTSNYANWVQEKPDHLFTGLIGGTNNRAPGVPARFSGSLIGDKAALTITGAQTEDEAIYFCALWYSNHFIFGSGTKVTVL
notes: as for B1
B4: 15-C8-B5-G7 (antibody, V domains shown)
VH: QVQLQQPGAELVKPGASVKLSCKASDYTFTSHWMHWVKQRPGQGLEWIGMIHPNSGTTHYNENFKNKATLTVDNSSSTAYMQLSSLTSEDSAVYYCAWGSSNSYFYAMAYWGQGTSVTVSS
VL: B3 VL with D43A, Y94F, F98L, I99V, S102G, V106L
notes: as for B1
B5: 6-F3-G2-G1 (antibody, V domains shown)
VH: QVQLQQPGAELVKPGASVKLSCKASDYTFTNYWMHWVKQRPGQGLEWIGMIHPNSGTTSYNEKFKNKATLTVDTSSATTYMHLSSLTSEDSAVYYCASHYGNSYSAMDYWGQGTSVTVSS
VL: B1 VL with S36N, P96T
notes: as for B1
B6: 14-E7-G9-D4 (antibody, V domains shown)
VH: EVQLQQSGPELVKPGASVKMSCKASGYTFTNYIMHWVKQKPGQGLEWIGYINPYNDGIKYNEKFKGKATLTSDKSSSTAYMELSSLTSEDSAVYYCTRWGNYVFYYTMDYWGQGTSVTVSS
VL: QIVLSQSPAILSASPGEKVTMTCRASSSVSYMHWYQQKPGSSPKPWIYATSNLASGVPARFSGSGSGTSYSLTISRMEAEDAATYYCQQWSGNPPLTFGAGTKLELK
notes: as for B1
B7: 25-D3-G4-C6 (antibody, V domains shown)
VH: EIQLQQTGPELVKPGASVKISCKASGYSFTDYIILWVKQSHGMSLEWIGNINPYYNSTYYNLKFKGKATLTVDKSSSTAYMQLDSLTSEDSAVYYCARDSFDWYFGVWGAGTTVTVSS
VL: DVVMTQTPLSLPVSLGDQASISCRSSQSLVHSNGNTYLHWYLQKPGQSPKLLIYKVSNRFSGVPDRFSGSGSGTDFTLKISRVETEDLGIYFCSQSTHVPPLTFGAGTKLELK
notes: as for B1
B8: 7-E1-F8-F6 (antibody, V domains shown)
VH: QVQLQQSGPELVKPGASVQMSCKASGYTFTDYVISWVNQRTGQGLEWIGEIYPRSGNTYYNEKFKGKATLTADKSSNTAYMQLSSLTSEDSAVYFCARFDIAYSFDYWGQGTTLTVSS
VL: DVVMTQTPLSLPVSLGDQASISCRSTQSLVHSNGVTYLHWYLQKPGQSPKLLIYKVSNRFSGVPDRFSGSGSGTDFTLKISRVEAEDLGVYFCSQGTHVPWTFGGGTKLEIK
notes: as for B1
B9: 6-H11-G5-D8 (antibody, V domains shown)
VH: EVQLQESGPELVKPGTSVKLSCKASGYTFTSYDINWVRQRPEQGLEWIGWIFPGNGDTYYNEKFKGKATLTSDKSSSTAYMQLSRLTSEDSAVYFCARDLRLGTFDYWGQGTTLTVSS
VL: QIVLTQSPEIMSASPGEKVTMTCSASSSVSYIHWYQQKSGTSPKRWIYDTSKLASGVPARFSGSGSGTSYSLTIRSMEAEDAATYYCQQGSSNPRTFGGGTKLELK
notes: as for B1
B10: 3-C2-C3-E7 (antibody, V domains shown)
VH: EVQLQQSGPELVKPGASVKISCKTSGYTFTENTMHWVKQSHGKRLEWIGGINPNTGGTTYNQKFKGKATLTVDKSSSTAYMELRSLTSEDSAVYYCARRGTNWEHWYFDVWGAGTTVTVSS
VL: B9 VL with E9A, I32M, R75S, G90W, R95L, G99A
notes: as for B1
B11: 27-F8-E10-E11 (antibody, V domains shown)
VH: EVQLQQSGPELVKPGASVKISCKTSGYTFTEYAMHWVKQSHGKILEWIGGINPNIGGTTYNQKFKDKATLTVDKSSSTASMELRSLTSEDSAVYYCARFLVPSTEGFTYWGQGTLVTVSA
VL: B9 VL with E9A, I32M, K52R, L53V, R75S, G90W, R95L, G99A
notes: as for B1
B12: 2-A7-B10-A3 (antibody, V domains shown)
VH: QVQLQQSGAELVRPGVSVKISCKGSGYTFTDYAMHWVKQSHAKSLEWIGVINTNYVNTSYNQKFKGKATMTVDKSSSTAFMELARLTSEDSAIYYCARGGKYGNYVFFFAYWGQGTLVTVSA
VL: DIQMTQTTSSLSASLGDRVTISCRASQDISNYLNWYQQKPDGTVKLLIYYTSRLHSGVPSRFSGSGSGTDYSLTISNLEQEDIATYFCQQGNTLPYTFGGGTKLEIK
notes: as for B1
B13: 9-G2-H6-E4 (antibody, V domains shown)
VH: EVQLQQSGPDLVKPGASVKISCKASGYSFTGYFMNWVKQRHGKSLEWIGYINPNNGDTIYNQKFKGKATLTVDKSSSTAHMELLSLTSEDSAVYYCGRGGLPFGALDYWGQGTSVTVSS
VL: DIVMSQSPSSLAVSVGEKVNMSCKSSQSLLYSRNQKNYLAWNQQKPGQSPKLLIYWASARESGVPDRFTGSGSGTDFTLTISSVKAEDLAAYYCQQYHSYPYTFGGGTKLELK
notes: as for B1
B14: 27-E7-D8-C7 (antibody, V domains shown)
VH: EVQLQESGPELVRPGVSVKISCKGSGYTFTDYAMHWVKQSHAKSLEWIGVINTYSDNTNYNRKFKGKATMTVDKSSSTAYMELARLTSEDSAIYYCARGLLLRSQLGVYFDYWGQGTTLTVSS
VL: QIVLSQSPAILSASPGEKVTMTCRASSSVSYMHWYQQKPGSSPKPWIYATSNLASGVPARFSGSGSGTSYSLTISRVEAEDAATYYCQQWSSNPWTFGGGTKLEIK
notes: as for B1
B15: 9-E8-F9-C10 (antibody, V domains shown)
VH: EVQLQQSGAELVRPGTSVKISCKASGYAFSDYWLSWVKQRPGHGLEWIGDICPGSGNIYYNERFKDKVILTADRSSSTAYLQFSSLTSEDSVVYFCTRLITRVIDYWGQGTSVTVST
VL: ENVLTQSPAIMSASPGEKVTMTCSASSSVNYMHWYQQKSSTSPKLWIYDTSKLSSGVPGRFSGSGSGNSYSLTISSMEAEDVATYYCFQGSGYPLTFGAGTKLELK
notes: as for B1
B16: 3-G7-D8-D3 (antibody, V domains shown)
VH: QVQLQQSGAELARPGTSVKLSCKASGYTFTTYWIQWVKQRPGQGLEWIGAIYPGDGDTRYTQKFKGKATLTADKSSSTAYMQLSTLASEDSAVYYCARPYDGYYIDYPMDSWGQGTSVTVSS
VL: QIVLTQSPAIMSASPGEKVTMTCSASSRINYMHWYQQKPGTSPIIWIYDTSKLASGVPARFSGSGSGTSYSLTISSMEAEDAATYYCHQRSSYPFTFGSGTKLEIK
notes: as for B1

What was measured:
human CD276 protein = target: T1, human CD276 protein; experiment: FACS on CHO-S-hCD276 cells
Method: (§1) Screening & Expansion—The subcloning plates were screened by protein or cell-based Elisa, and the subclones with good binding ability were expanded to 24-wells for confirmation tests. The specificity and cross-reactivity of these subclones were confirmed with FACS analysis. Briefly, parental CHO-S cells, CHO-S-hCD276, CHO-S cell line stably over-expressing Macaca fascicularis CD276, CHO-K1 S, cell line stably over-expressing mouse CD276 were incubated with antibodies produced by each subclone respectively. Fluorescent dye-conjugated secondary antibody was used to detect the binding of the primary antibody with the cells. Median fluorescence intensity was measured by FACS analysis.

mouse CD276 protein = target: T2, mouse CD276 protein; experiment: FACS on CHO-S-mCD276 cells
Method: as §1

[1] = target: T3, Macaca fascicularis CD276 (Macaca fascicularis); experiment: FACS on CHO-S-cynoCD276 cells
T3 construct: whole, on cells; also called cynomolgus monkey CD276; cynoCD276
Method: as §1

Binder	FACS MFI (human CD276 protein)	FACS MFI (mouse CD276 protein)	FACS MFI [1]
B1	56300	2080	40800
B2	127000	20600	83500
B3	54100	6200	95800
B4	36600	5730	43000
B5	37400	6980	114000
B6	78100	1300	61800
B7	5940	1370	5390
B8	6990	1310	5590
B9	113000	1360	30400
B10	38800	2770	2110
B11	16000	1350	80500
B12	58900	2040	56000
B13	49600	27600	5400
B14	94700	1590	87900
B15	7610	1950	5700
B16	82400	1290	6420
